A short description of series [1]: Hydroxybutyryl-CoA dehydrogenase activity (rate of oxidation of NADH, absorbance at 340 nm). It is filed as biochemical. As for the experimental part:
Hydroxybutyryl-CoA dehydrogenase activity was determined by measuring the rate of oxidation of NADH as measured by the decrease in absorbance at 340 nm. A standard assay mixture contained 50 mM MOPS, pH 7.0, 1 mM DTT and 0.2 mM NADH. The cocktail was equilibrated for 5 min at 37° C. and then the cell free extract was added. Reactions were initiated by addition of the substrate, 0.1 mM acetoacetyl-CoA. In one typical assay, the specific activity of the BHBD protein in the induced culture was determined to be 57.4 μmol mg^−1 min^−1 compared to 0.885 μmol mg^−1 min^−1 in the uninduced culture.
(§1) For enzyme activity analysis, a single colony of each strain was streaked onto a fresh plate containing SD minimal drop out medium and incubated at 30° C. for 2 days. The cells on this plate were used to inoculate 20 mL of SD drop out medium and in a 125 mL shake flask and grown overnight at 30° C., with shaking at 250 rpm. The optical density (OD600) of the overnight culture was measured, and the culture was diluted to an OD600=0.1 in 250 mL of the same medium in a 1.0 L shake flask, and grown at 30° C. with shaking at 250 rpm to an OD600 of between 0.8 to 1.0. The cells were then harvested by centrifugation at 2000×g for 10 min, and resuspended in 20 mL of 50 mM Tris-HCl buffer, pH 8.5. Enzyme assays were performed as described above.

A short description of series [2]: Acetoacetyl-CoA thiolase activity in cell free extracts (decrease in absorbance at 303 nm). It is filed as biochemical. As for the experimental part: Acetoacetyl-CoA thiolase activity in the cell free extracts was measured as degradation of a Mg^2+-acetoacetyl-CoA complex by monitoring the decrease in absorbance at 303 nm. Standard assay conditions were 100 mM Tris-HCl pH 8.0, 1 mM DTT (dithiothreitol) and 10 mM MgCl2. The cocktail was equilibrated for 5 min at 37° C.; then the cell-free extract was added. The reaction was initiated with the addition of 0.05 mM acetoacetyl-CoA plus 0.2 mM CoA. Protein concentration was measured by either the Bradford method or by the Bicinchoninic Kit (Sigma, catalog no. BCA-1). Bovine serum albumin (Bio-Rad, Hercules, Calif.) was used as the standard in both cases. In one typical assay, the specific activity of the ThlA protein in the induced culture was determined to be 16.0 μmol mg^−1 min^−1 compared to 0.27 μmol mg^−1 min^−1 in the uninduced culture.
as §1

Setting [3] is: yeast strain DPD5200 (BY4743/pNY103), standard conditions.
[4] abbreviates: yeast strain DPD5206 (BY4741/pNY102).

Results on two substances are retold here after patent US9297028B2, “Fermentive production of four carbon alcohols” (Butamax Advanced Biofuels LLC, priority 2005, dated 2016).

Turning to “BHBD: 3-hydroxybutyryl-CoA dehydrogenase encoded by hbd from C. acetobutylicum ATCC 824, SEQ ID NO:6”, the Hbd activity in series [1] (yeast BY4741 containing pNY10, hbd under GPD promoter) is reported as 1.8 U/mg; in series [1] (yeast strain BY4741 (pNY6), in words), “good”; in series [1] (setting [4]), 0.76 U/mg; in series [1] (yeast, GALL promoter controlled hbd) it was 0.40 U/mg. The Hbd enzyme activity in series [1] (setting [3]) is listed as 0.21 U/mg.
As for “ThlA: acetyl-CoA acetyltransferase encoded by thlA from C. acetobutylicum ATCC 824, SEQ ID NO:2”, the ThlA activity result in series [2] (yeast BY4741 containing pNY10 (thlA with one base deletion, truncated protein), in words) is reported as “no ThlA activity”; in series [2] (yeast BY4741 transformed with pNY12 (FBA1 promoter)) it was 1.66 U/mg; in series [2] (setting [4]), 1.24 U/mg. In series [2] (setting [3]), the ThlA enzyme activity stood at 0.49 U/mg.
